{"source": "patent EP1506972A1", "about": "(Genentech Inc., dated 2005)", "binders": {"B1": {"name": "human IGFBP-1 (other, UniProt P08833 26-259, looked up)", "chain": "APWQCAPCSAEKLALCPPVSASCSEVTRSAGCGCCPMCALPLGAACGVATARCARGLSCRALPGEQQPLHALTRGQGACVQESDASAPHAAEAGSPESPESTEITEEELLDNFHLMAPSEEDHSILWDAISTYDGSKALHVTNIKKWKEPCRIELYRVVESLAKAQETSGEEISKFYLPNCNKNGFYHSRQCETSMDGEAGLCWCVYPWNGKRIPGSPEIRGDPNCQIYFNVQN", "notes": "Secreted recombinant protein"}}, "test_in_all_cases": "competitive phage ELISA, soluble IGFBP-1 vs coated IGFBP-1", "key": {"[1]": {"target": "Ala(1-3)-IGF-I, triple alanine mutant of the first three N-terminal amino acids, displayed on phage (human; bacteriophage M13)"}, "[2]": {"target": "IGF-I F23A (G1S-A70V background) displayed on phage (human; bacteriophage M13)"}, "[3]": {"target": "IGF-I F25A (G1S-A70V background) displayed on phage (human; bacteriophage M13)"}, "[4]": {"target": "IGF-I G19A (G1S-A70V background) displayed on phage (human; bacteriophage M13)"}, "[5]": {"target": "IGF-I G22A (G1S-A70V background) displayed on phage (human; bacteriophage M13)"}, "[6]": {"target": "IGF-I G42A (G1S-A70V background) displayed on phage (human; bacteriophage M13)"}, "[7]": {"target": "IGF-I I43A (G1S-A70V background) displayed on phage (human; bacteriophage M13)"}, "[8]": {"target": "IGF-I N26A (G1S-A70V background) displayed on phage (human; bacteriophage M13)"}, "[9]": {"target": "IGF-I Q40A (G1S-A70V background) displayed on phage (human; bacteriophage M13)"}, "[10]": {"target": "IGF-I R21A (G1S-A70V background) displayed on phage (human; bacteriophage M13)"}, "[11]": {"target": "IGF-I R37A (G1S-A70V background) displayed on phage (human; bacteriophage M13)"}, "[12]": {"target": "IGF-I S34A (G1S-A70V background) displayed on phage (human; bacteriophage M13)"}, "[13]": {"target": "IGF-I S35A (G1S-A70V background) displayed on phage (human; bacteriophage M13)"}, "[14]": {"target": "IGF-I T41A (G1S-A70V background) displayed on phage (human; bacteriophage M13)"}, "[15]": {"target": "IGF-I V44A (G1S-A70V background) displayed on phage (human; bacteriophage M13)"}, "[16]": {"target": "IGF-I Y24A (G1S-A70V background) displayed on phage (human; bacteriophage M13)"}, "[17]": {"target": "T1, IGF-I P28A (G1S-A70V background) displayed on phage (human; bacteriophage M13)", "T1 construct": "not shown: Display carrier: M13 gene III protein fragment (residues 249-406) and the junction to it", "T1 chain": "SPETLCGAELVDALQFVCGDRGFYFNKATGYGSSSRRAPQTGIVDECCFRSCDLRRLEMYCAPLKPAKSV"}, "[18]": {"target": "T2, IGF-I G1S-A70V displayed on phage (fused to M13 gene III protein residues 249-406) (human; bacteriophage M13)", "T2 construct": "Monovalent display on M13 phagemid particles; template of the alanine scan; also called G1S-A70V IGF-I; wild-type-like IGF-I variant; not shown: Display carrier: M13 gene III protein fragment (residues 249-406) and the junction to it"}, "[19]": {"target": "T3, IGF-I G32A (G1S-A70V background) displayed on phage (human; bacteriophage M13)", "T3 construct": "not shown: Display carrier: M13 gene III protein fragment (residues 249-406) and the junction to it", "T3 chain": "T1 chain with A28P, G32A"}, "[20]": {"target": "T4, wild-type IGF-I displayed on phage (double mutation restoring wild type) (human; bacteriophage M13, UniProt P69168 267-424)", "T4 construct": "range 249-406; also called IGF-I WT; WT"}, "[21]": {"target": "T5, IGF-I L64A (G1S-A70V background) displayed on phage (human; bacteriophage M13)", "T5 construct": "not shown: M13 gene III fragment (residues 249-406), the display partner, and its junction to IGF-I", "T5 chain": "T1 chain with A28P, L64A"}, "[22]": {"target": "T6, IGF-I K68A (G1S-A70V background) displayed on phage (human; bacteriophage M13)", "T6 construct": "not shown: Display carrier: M13 gene III protein fragment (residues 249-406) and its junction to Val70"}, "[23]": {"target": "T7, IGF-I P2A (G1S-A70V background) displayed on phage (human; bacteriophage M13)", "T7 construct": "range 249-406"}, "[24]": {"target": "T8, IGF-I E3A (G1S-A70V background) displayed on phage (human; bacteriophage M13)", "T8 construct": "not shown: Display carrier: M13 gene III protein fragment (residues 249-406) and its junction to Val70"}}, "note": "Substitutions are numbered along the chain they refer to."}
{"binder": "B1", "values": [{"measurement": "IC50", "setting": "[1]", "value": 90.4, "unit": "nM"}, {"measurement": "relative IC50 (IC50mut/IC50 G1S-A70V)", "setting": "[1]", "value": 11, "unit": "fold"}, {"measurement": "IC50", "setting": "[2]", "value": 10.9, "unit": "nM"}, {"measurement": "relative IC50 (IC50mut/IC50 G1S-A70V)", "setting": "[2]", "value": 1.3, "unit": "fold"}, {"measurement": "IC50", "setting": "[3]", "value": 181, "unit": "nM"}, {"measurement": "relative IC50 (IC50mut/IC50 G1S-A70V)", "setting": "[3]", "value": 22.1, "unit": "fold"}, {"measurement": "IC50", "setting": "[4]", "value": 11, "unit": "nM"}, {"measurement": "relative IC50 (IC50mut/IC50 G1S-A70V)", "setting": "[4]", "value": 1.3, "unit": "fold"}, {"measurement": "IC50", "setting": "[5]", "value": 15.9, "unit": "nM"}, {"measurement": "relative IC50 (IC50mut/IC50 G1S-A70V)", "setting": "[5]", "value": 1.9, "unit": "fold"}, {"measurement": "IC50", "setting": "[6]", "value": 15.7, "unit": "nM"}, {"measurement": "relative IC50 (IC50mut/IC50 G1S-A70V)", "setting": "[6]", "value": 1.9, "unit": "fold"}, {"measurement": "IC50", "setting": "[7]", "value": 31.3, "unit": "nM"}, {"measurement": "relative IC50 (IC50mut/IC50 G1S-A70V)", "setting": "[7]", "value": 3.8, "unit": "fold"}, {"measurement": "IC50", "setting": "[8]", "value": 9.1, "unit": "nM"}, {"measurement": "relative IC50 (IC50mut/IC50 G1S-A70V)", "setting": "[8]", "value": 1.1, "unit": "fold"}, {"measurement": "IC50", "setting": "[9]", "value": 10.2, "unit": "nM"}, {"measurement": "relative IC50 (IC50mut/IC50 G1S-A70V)", "setting": "[9]", "value": 1.2, "unit": "fold"}, {"measurement": "IC50", "setting": "[10]", "value": 7.1, "unit": "nM"}, {"measurement": "relative IC50 (IC50mut/IC50 G1S-A70V)", "setting": "[10]", "value": 0.9, "unit": "fold"}, {"measurement": "IC50", "setting": "[11]", "value": 12.3, "unit": "nM"}, {"measurement": "relative IC50 (IC50mut/IC50 G1S-A70V)", "setting": "[11]", "value": 1.5, "unit": "fold"}, {"measurement": "IC50", "setting": "[12]", "value": 9.5, "unit": "nM"}, {"measurement": "relative IC50 (IC50mut/IC50 G1S-A70V)", "setting": "[12]", "value": 1.2, "unit": "fold"}, {"measurement": "IC50", "setting": "[13]", "value": 11.7, "unit": "nM"}, {"measurement": "relative IC50 (IC50mut/IC50 G1S-A70V)", "setting": "[13]", "value": 1.4, "unit": "fold"}, {"measurement": "IC50", "setting": "[14]", "value": 13.7, "unit": "nM"}, {"measurement": "relative IC50 (IC50mut/IC50 G1S-A70V)", "setting": "[14]", "value": 1.7, "unit": "fold"}, {"measurement": "IC50", "setting": "[15]", "value": 18.8, "unit": "nM"}, {"measurement": "relative IC50 (IC50mut/IC50 G1S-A70V)", "setting": "[15]", "value": 2.3, "unit": "fold"}, {"measurement": "IC50", "setting": "[16]", "value": 13.3, "unit": "nM"}, {"measurement": "relative IC50 (IC50mut/IC50 G1S-A70V)", "setting": "[16]", "value": 1.6, "unit": "fold"}, {"measurement": "relative IC50 (IC50mut/IC50 G1S-A70V)", "setting": "[17]", "value": 1.1, "unit": "fold"}, {"measurement": "relative IC50 (IC50mut/IC50 G1S-A70V)", "setting": "[18]", "value": 1, "unit": "fold"}, {"measurement": "relative IC50 (IC50mut/IC50 G1S-A70V)", "setting": "[19]", "value": 1.3, "unit": "fold"}, {"measurement": "relative IC50 (IC50mut/IC50 G1S-A70V)", "setting": "[20]", "value": 1, "unit": "fold"}, {"measurement": "relative IC50 (IC50mut/IC50 G1S-A70V)", "setting": "[21]", "value": 1.5, "unit": "fold"}, {"measurement": "relative IC50 (IC50mut/IC50 G1S-A70V)", "setting": "[22]", "value": 1.3, "unit": "fold"}, {"measurement": "relative IC50 (IC50mut/IC50 G1S-A70V)", "setting": "[23]", "value": 1.3, "unit": "fold"}, {"measurement": "relative IC50 (IC50mut/IC50 G1S-A70V)", "setting": "[24]", "value": 33.9, "unit": "fold"}]}
